Measurements from publication PMC4649674, “Structural insights into HetR−PatS interaction involved in cyanobacterial pattern formation” (Scientific Reports, 2015).

How the values were obtained:
[1] = target: PatS6 (Nostoc sp. PCC 7120); details: cited from earlier work
[2] = target: PatS5 (Nostoc sp. PCC 7120); details: cited from earlier work
HetR mutant E253A = target: T1, HetR mutant E253A (Nostoc sp., UniProt P27709, E253A); assay: ITC binding of PatS6 to HetR mutant E253A; set-up: species or system Anabaena sp. PCC 7120; details: 25 °C, 1 M NaCl, 5% (v/v) glycerol, 10 mM Tris-Cl, pH 7.8, protein 50 μM, PatS6 750 μM
T1 construct: 15 times (150 or 750 μM) to that of the full-length protein or 40 times (2 mM) to that of HetRHood; six-histidine tag (N); made in house; host or cells: Escherichia coli Rosetta (DE3)
Experimental: (§1) The selenium-methionine-labeled HetR (SeMet HetR) was expressed in E. coli strain B834 (DE3) (Novagen, Madison). Transformed cells were first cultured in 2 × YT medium at 37 °C overnight, then harvested and washed twice with the M9 medium. Then the cells were cultured in SeMet medium (M9 medium with 50 mg/l SeMet and other essential amino acids at 50 mg/l) to an OD600 nm of approximately 1.0. The following steps in protein expression and purification were the same as those for the native protein. Site-directed mutagenesis was performed using the QuickChange site-directed mutagenesis kit (Stratagene, La Jolla) with the plasmid encoding the wild-type HetR as the template. The mutant protein was expressed, purified and stored in the same manner as the wild-type protein.
(§2) The related Kd values are
(§3) calculated and shown above the figures. ND stands for “not detectable”.

[3] = target: T2, HetR double mutant D270A/D278A (Nostoc sp., UniProt P27709, D270A/D278A); assay: ITC binding of PatS6 to HetR double mutant D270A/D278A; set-up: species or system Anabaena sp. PCC 7120; details: 25 °C, 1 M NaCl, 5% (v/v) glycerol, 10 mM Tris-Cl, pH 7.8, protein 50 μM, PatS6 750 μM
T2 construct: 15 times (150 or 750 μM) to that of the full-length protein or 40 times (2 mM) to that of HetRHood; six-histidine tag (N); made in house; host or cells: Escherichia coli Rosetta (DE3)
Experimental: as §1, §2, §3

HetR = details: cited from earlier work
Text: Heterocyst pattern was first speculated to be controlled by a pentapeptide RGSGR (designated as PatS5), a motif which was identified first as the C-terminal five residues of PatS[16], and later within a putative ketoacyl reductase HetN[17].

[4] = test system: E253D mutant strain (hetR); set-up: method as in PMID 21942265; details: in vivo; cited from earlier work
HetR D278A = target: T3, HetR D278A (Anabaena sp. PCC 7120, UniProt P27709 1-299, D278A); assay: ITC; iTC200, 25 °C; protein in the sample cell (10 or 50 μM), PatS6 in the syringe (150 or 750 μM; 2 mM for HetR_(Hood)); 1 M NaCl, 5% (v/v) glycerol, 10 mM Tris-Cl, pH 7.8; details: both partners purified
T3 construct: HetR of Anabaena sp; PCC 7120, point mutant made from the plasmid of wild-type HetR; source: E. coli, purified in the same manner as the wild-type protein
T3 sequence (looked up): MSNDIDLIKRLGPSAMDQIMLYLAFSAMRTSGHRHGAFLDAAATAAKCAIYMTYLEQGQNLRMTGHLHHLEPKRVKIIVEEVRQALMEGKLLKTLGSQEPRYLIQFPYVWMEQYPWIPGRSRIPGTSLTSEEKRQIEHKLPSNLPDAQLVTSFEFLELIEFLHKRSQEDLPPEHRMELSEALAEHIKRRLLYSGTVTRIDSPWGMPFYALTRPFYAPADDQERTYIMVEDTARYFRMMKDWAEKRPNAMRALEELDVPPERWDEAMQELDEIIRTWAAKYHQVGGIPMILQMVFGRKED

[5] = target: T4, HetR (wild type, full-length) from Anabaena sp. PCC 7120 (Anabaena sp. PCC 7120, UniProt P27709 1-299); assay: as above; details: both partners purified
T4 construct: HetR, transcription factor of Anabaena sp; PCC 7120; DBD 1-98, flap domain 99-216, hood domain 217-299; Intertwined homodimer in the crystal with 21-bp hetP promoter DNA; A SeMet-labelled form (E. coli B834) was used for phasing only; also called wild-type HetR; full-length HetR; source: E. coli Rosetta (DE3), purified (Ni-NTA, Superdex 75)
T4 sequence (looked up): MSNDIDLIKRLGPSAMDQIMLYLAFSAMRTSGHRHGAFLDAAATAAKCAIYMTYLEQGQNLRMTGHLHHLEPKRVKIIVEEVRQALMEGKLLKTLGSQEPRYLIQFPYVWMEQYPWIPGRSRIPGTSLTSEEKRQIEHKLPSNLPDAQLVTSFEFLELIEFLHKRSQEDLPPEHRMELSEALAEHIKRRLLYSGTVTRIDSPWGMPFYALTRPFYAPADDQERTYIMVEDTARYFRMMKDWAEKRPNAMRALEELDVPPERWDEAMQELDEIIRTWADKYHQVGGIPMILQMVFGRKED

[6] = target: T5, HetR hood domain (Asp219-Asp299), HetR_(Hood) (Anabaena sp. PCC 7120, UniProt P27709 219-299); assay: as above; details: both partners purified
T5 construct: HetR of Anabaena sp; PCC 7120, individual hood domain, residues Asp219-Asp299; Entwined dimer in the crystal; four molecules (two dimers) in the asymmetric unit; source: E. coli Rosetta (DE3), purified (Ni-NTA, Superdex 75)
T5 sequence (looked up): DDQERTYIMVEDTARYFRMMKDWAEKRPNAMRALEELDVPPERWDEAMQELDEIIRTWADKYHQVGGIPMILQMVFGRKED

HetR R223W = target: T6, HetR R223W (Anabaena sp. PCC 7120, UniProt P27709 1-299, R223W); assay: as above; details: both partners purified
T6 construct: HetR of Anabaena sp; PCC 7120, point mutant made from the plasmid of wild-type HetR; source: E. coli, purified in the same manner as the wild-type protein
T6 sequence (looked up): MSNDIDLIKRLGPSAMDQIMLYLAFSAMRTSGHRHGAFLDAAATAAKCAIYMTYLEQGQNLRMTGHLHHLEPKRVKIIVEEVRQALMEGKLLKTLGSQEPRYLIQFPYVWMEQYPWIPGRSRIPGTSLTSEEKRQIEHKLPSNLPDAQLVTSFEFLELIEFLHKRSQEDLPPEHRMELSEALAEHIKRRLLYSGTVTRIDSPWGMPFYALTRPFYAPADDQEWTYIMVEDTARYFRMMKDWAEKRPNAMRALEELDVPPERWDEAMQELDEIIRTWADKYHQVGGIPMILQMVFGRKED

HetR D270A = target: T7, HetR D270A (Anabaena sp. PCC 7120, UniProt P27709 1-299, D270A); assay: as above; details: both partners purified
T7 construct: HetR of Anabaena sp; PCC 7120, point mutant made from the plasmid of wild-type HetR; source: E. coli, purified in the same manner as the wild-type protein
T7 sequence (looked up): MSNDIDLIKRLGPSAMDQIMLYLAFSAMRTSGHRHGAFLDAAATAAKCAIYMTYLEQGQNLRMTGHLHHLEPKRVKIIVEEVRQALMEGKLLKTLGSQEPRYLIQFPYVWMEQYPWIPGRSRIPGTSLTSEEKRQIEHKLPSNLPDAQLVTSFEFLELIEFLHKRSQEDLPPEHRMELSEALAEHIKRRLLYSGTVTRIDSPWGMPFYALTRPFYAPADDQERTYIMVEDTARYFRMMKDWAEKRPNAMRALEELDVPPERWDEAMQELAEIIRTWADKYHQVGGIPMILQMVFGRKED

HetR D256A = target: T8, HetR D256A (Anabaena sp. PCC 7120, UniProt P27709 1-299, D256A); assay: as above; details: both partners purified
T8 construct: HetR of Anabaena sp; PCC 7120, point mutant made from the plasmid of wild-type HetR; source: E. coli, purified in the same manner as the wild-type protein
T8 sequence (looked up): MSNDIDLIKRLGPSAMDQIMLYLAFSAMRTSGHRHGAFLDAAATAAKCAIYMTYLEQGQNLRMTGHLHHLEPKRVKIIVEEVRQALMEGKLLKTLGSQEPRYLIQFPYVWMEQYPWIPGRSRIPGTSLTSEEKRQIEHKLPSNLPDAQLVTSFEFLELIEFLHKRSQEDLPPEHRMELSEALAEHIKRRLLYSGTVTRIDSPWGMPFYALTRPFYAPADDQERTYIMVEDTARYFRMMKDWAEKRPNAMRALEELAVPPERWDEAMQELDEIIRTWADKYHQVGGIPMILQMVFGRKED

HetR E254A = target: T9, HetR E254A (Anabaena sp. PCC 7120, UniProt P27709 1-299, E254A); assay: as above; details: both partners purified
T9 construct: HetR of Anabaena sp; PCC 7120, point mutant made from the plasmid of wild-type HetR; source: E. coli, purified in the same manner as the wild-type protein
T9 sequence (looked up): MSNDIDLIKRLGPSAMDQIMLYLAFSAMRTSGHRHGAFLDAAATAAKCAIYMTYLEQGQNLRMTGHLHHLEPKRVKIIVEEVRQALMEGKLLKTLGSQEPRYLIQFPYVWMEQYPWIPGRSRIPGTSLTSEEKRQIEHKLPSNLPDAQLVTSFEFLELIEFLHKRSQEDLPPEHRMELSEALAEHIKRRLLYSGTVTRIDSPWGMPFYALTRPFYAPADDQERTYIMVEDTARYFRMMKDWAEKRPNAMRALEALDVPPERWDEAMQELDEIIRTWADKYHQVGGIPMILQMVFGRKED

T1 sequence (P27709 whole entry E253A): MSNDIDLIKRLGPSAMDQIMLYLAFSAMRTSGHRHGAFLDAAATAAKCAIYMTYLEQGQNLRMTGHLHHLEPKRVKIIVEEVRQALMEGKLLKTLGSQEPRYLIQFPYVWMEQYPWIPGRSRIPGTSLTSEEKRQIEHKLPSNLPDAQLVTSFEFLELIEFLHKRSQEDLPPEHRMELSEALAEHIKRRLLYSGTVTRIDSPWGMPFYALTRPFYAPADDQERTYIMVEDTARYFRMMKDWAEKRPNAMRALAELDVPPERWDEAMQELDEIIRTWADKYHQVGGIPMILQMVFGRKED
T2 sequence (P27709 whole entry D270A/D278A): as the sequence (P27709 whole entry E253A) above, with A253E, D270A, D278A counted along it

In the case of HetR (from UniProt P27709), the Kd [1] is given as 7 nM and the Kd [2] is given as 227 nM.

For `N=C(N)NCCC[C@H](NC(=O)CNC(=O)[C@H](CO)NC(=O)CNC(=O)[C@H](CCCNC(=N)N)NC(=O)[C@@H](N)CCC(=O)O)C(=O)O` [PatS6], the “PatS6-binding affinity towards E253A” value (HetR mutant E253A) was “totally abolished the PatS6-binding affinity” and the “binding affinity towards D270A/D278A” value [3] was “no detectable binding affinity”.

In the case of “RGSGR [PatS5, pentapeptide RGSGR, C-terminal five residues of PatS]”, the “effect of PatS5 binding on DNA-binding capacity of HetR” value (HetR) is listed as “may abolish the DNA-binding capacity of HetR”, the “molecules bound per HetR homodimer” value (HetR; in vitro binding assays) is listed as “two” and the “sensitivity of E253D mutant strain to PatS5” value [4] is listed as “drastically reduced sensitivity to PatS5”.

B1: PatS6 (PatS-derived hexapeptide ERGSGR) (peptide)
peptide: ERGSGR
notes: PatS-derived hexapeptide; RGSGR is the C-terminal five residues of PatS of Anabaena sp; PCC 7120; source: synthetic peptide (GL Biochem, Shanghai)
Work on B1 yielded a Kd (HetR D278A) of 1630 nM, a Kd [5] of 12 nM and a Kd [6] of 24000 nM. It also gave a Kd (HetR R223W) of 2350 nM, a Kd (HetR D270A) of 2250 nM and a Kd (HetR D256A) of 427 nM. For the same molecule, the Kd (HetR E254A) was 91 nM.
